Several values for one entry are separate records, joined by “and”; a condition that tells them apart may be missing. Equal entries are not always repeated.

In one experiment the target is T1, BSA (UniProt P02769 25-607).
T1 construct: also called control protein
Put plainly: ELISA, 1 µg/ml coated BSA, 1 µg/ml VHH-hFc. For orientation: In an ELISA, binding on a coated surface is turned into a signal by an enzyme label.

A further experiment has as its target T2, SARS-CoV S1 (SARS-CoV, UniProt P59594 14-667).
T2 construct: domain: S1; also called SARS-CoV S1 protein
Put plainly: ELISA, 1 µg/ml coated antigen, 1 µg/ml VHH-hFc.

Experiment [1] addresses SARS-CoV-2 spike on pseudovirus (SARS-CoV-2, UniProt P0DTC2 14-1273). Description: cell-based or functional assay.
Experiment [2] addresses T3, SARS-CoV S protein trimer expressed on human A431 cells (SARS-CoV, UniProt P59594 14-1255).
T3 construct: whole, on cells; also called S protein of SARS-CoV
Put plainly: flow cytometry on A431 cells expressing SARS-CoV S protein trimer (FIG. 3B). For orientation: In flow cytometry, cells or beads pass a laser one at a time.

Experiment [3] deals with T3, SARS-CoV S protein trimer expressed on …. Put plainly: flow cytometry on A431 cells expressing SARS-CoV S (A431-CoV-S).
A further experiment has as its target T4, SARS-CoV-2 S trimer (SARS-CoV-2, UniProt P0DTC2 16-1213).
T4 construct: also called SARS-CoV-2 S protein; S homotrimer protein
Put plainly: monoclonal phage ELISA, drawn table of OD450 values.

The next experiment concerns the target SARS-CoV-2 RBD (SARS-CoV-2, UniProt P0DTC2 319-541). The description is as above.
In experiment [4] the target is T5, RBD-mFc (SARS-CoV-2, UniProt P0DTC2 319-541).
Experiment [5] concerns the target T5, RBD-mFc. This is another data set of the same source.

T1 sequence (P02769 25-607 limits assumed): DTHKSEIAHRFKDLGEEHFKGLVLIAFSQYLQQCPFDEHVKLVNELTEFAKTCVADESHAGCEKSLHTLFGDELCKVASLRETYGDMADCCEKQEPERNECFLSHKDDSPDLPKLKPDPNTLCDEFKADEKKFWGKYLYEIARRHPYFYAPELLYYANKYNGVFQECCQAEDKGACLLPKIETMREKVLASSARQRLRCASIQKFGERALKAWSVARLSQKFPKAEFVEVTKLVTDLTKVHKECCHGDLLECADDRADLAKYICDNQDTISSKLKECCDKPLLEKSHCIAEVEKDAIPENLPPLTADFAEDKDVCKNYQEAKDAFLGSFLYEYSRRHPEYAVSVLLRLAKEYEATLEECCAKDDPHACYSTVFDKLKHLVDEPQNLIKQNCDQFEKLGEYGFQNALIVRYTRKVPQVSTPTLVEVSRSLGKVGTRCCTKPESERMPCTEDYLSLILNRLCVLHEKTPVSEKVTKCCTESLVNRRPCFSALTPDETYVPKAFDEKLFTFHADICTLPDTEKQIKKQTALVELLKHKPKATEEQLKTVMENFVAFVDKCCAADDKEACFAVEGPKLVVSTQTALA

B1: 7A5 VHH-hFc (Fc fusion)
chain: AVQLVESGGGLVQPGGSLRLSCAASGFTFSSYYMSWVRQAPGKGLEWVSTINSRGSSTYYADSVKGRFTISRDNAKNTLYLQMSSLKSEDTALYYCAIGRLYSVKGQGTQVTVSS
notes: also called NCI-CoV-7A5 VHH-hFc fusion protein
Regarding B1, the binding result in the experiment with BSA and in the experiment with SARS-CoV S1 was “binds” throughout. Further, the “IC50, SARS-CoV-2 spike pseudovirus neutralization, repeated assay (FIGS. 9A-9F)” value (“IC50 … (FIGS. 9A-9F)” below) in [1] stood at 3430 nM.

B2: 8A2 VHH-hFc (Fc fusion)
chain: AVQLVDSGGGSVQAGGSLRLSCAASGYTYSICTMGWYRQAPGEGLEWVSGINADGSNTHYTDSVKGRFTISRDNAKKTLYLQMNSLKPEDTAIYYCAAHGTYDKYAPCGGFAGTYTYWGQGTQVTVSS
notes: also called NCI-CoV-8A2 VHH-hFc
As to B2, the binding result in [2] was “no binding”. Further, in experiment [3], the “percent of cells right of the dashed gate line” value (from here on “percent”) is 59.2%. The molecule further returned a Kd with SARS-CoV-2 of 0.26 nM.

B3: 1H6 VHH-hFc (Fc fusion)
chain: AVQLVDSGGGSVQAGGSLNLSCVASGTTLRNGCMAWFRQVPGKEREVVAIIIRATSYTDYADSVKGRFTISQDNAKNTVYLQMKSLTPEDTATYYCAATLYRVNCAKREFDKWGQGTQVTVSS
notes: also called 1H6-hFc; NCI-CoV-1H6 VHH-hFc fusion protein
In the experiment with SARS-CoV-2, B3 displayed a dissociation constant (Kd) of 37 nM. For the same molecule, the binding result with SARS-CoV S1 is “no binding (tested: 1 µg/ml)”.

B4: NCI-CoV-7E7 (VHH)
VHH: AVQLVDSGGGSVQSGGSLRLSCVASGYTYSIYNMGWFRQAPGKGLEWVSGINSDGSNTYYADSVKGRFTISRDNAKNTLYLQMNSLKSEDTALYYCATLPICSGGYCPPGYWGQGTQVTVSS
On to B4, for which the OD450 was 0.57 with SARS-CoV-2 S trimer and 1 with SARS-CoV-2 RBD.

B5: 3E8 VHH-hFc (Fc fusion)
chain: QVQLVESGGGLVQAGGSLRLSCATSGFTFSGGYMAWVRQVPGKGLEWVANSIYDGSTYYSDAVKGRFTVSQDNAENTVYLEMNSLEPEDTAMYYCAAGWNGGPWSRTNAYIYWGQGTQVTVSS
notes: also called NCI-CoV-3E8 VHH-hFc fusion protein
For B5, the binding result with BSA is reported as “no binding (tested: 1 µg/ml)”; in the experiment with SARS-CoV S1, “binds”. The “IC50 … (FIGS. 9A-9F)” value in [1] was 1170 nM.

B6: 1B5 VHH-hFc (Fc fusion)
chain: DVQLVESGGGSVQAGGSLRLSCTGSRYTYSTYCMGWFRQAPGKEEEAVAIINSGGGEPYYGDSVKGRFTISQDRAKNTVYLQMDGLQPDDTAIYYCVAADSHNSRCYLGRSYVNYWGQGTQVTVSS
notes: also called 1B5-hFc; NCI-CoV-1B5 VHH-hFc fusion protein
As for B6, in the experiment with RBD-mFc [4], the IC50 was under 0.001 µg/mL. In the experiment with RBD-mFc [5], the “IC50 (read off the curve)” value was about 0.3 µg/mL. In addition, the binding result with BSA is “no binding (tested: 1 µg/ml)”. The “percent” value in experiment [3] worked out at 98.3%. The molecule further gave an equilibrium dissociation constant (Kd) with SARS-CoV-2 of 0.1 nM. Besides, in experiment [1], the “IC50, SARS-CoV-2 spike pseudovirus neutralization on HEK 293T-hACE2 cells” value was 6.6 nM and 0.55 µg/ml; the “IC50 … (FIGS. 9A-9F)” value turned out to be 7.6 nM.

B7: 7A3 VHH-hFc (Fc fusion)
chain: QVQLVESGGGSVQPGGSLRLSCVVSGYTSSSRYMGWFRQVPGKGLEWVSGIKRDGTNTYYADSVKGRFTISQDNAKNTVYLQMNSLKPEDTAMYYCAAGSWYNQWGYSMDYWGKGTQVTVSS
notes: also called 7A3-hFc; NCI-CoV-7A3 VHH-hFc fusion protein
Consider B7, for which, in [3], the “percent” value came out at 92.1%. This molecule also had a dissociation constant (Kd) in the experiment with SARS-CoV-2 of 0.2 nM.

A word on the Kd: it is the constant that tells how readily two partners part at equilibrium. The term IC50 denotes the concentration that inhibits the measured activity by half. Read a low IC50 as greater potency in that assay.

The values are drawn from patent US20230391852A1 (US Dept. of Health and Human Services, published 2023).
